{"source": "paper PMC6751169", "about": "“Modular enzyme assembly for enhanced cascade biocatalysis and metabolic flux” (Nature Communications, 2019)", "proteins": {"B1": {"name": "MenD (2-succinyl-5-enolpyruvyl-6-hydroxy-3-cyclohexadiene-1-carboxylate synthase), untagged (enzyme, E. coli, UniProt P17109 1-556, looked up)", "chain": "MSVSAFNRRWAAVILEALTRHGVRHICIAPGSRSTPLTLAAAENSAFIHHTHFDERGLGHLALGLAKVSKQPVAVIVTSGTAVANLYPALIEAGLTGEKLILLTADRPPELIDCGANQAIRQPGMFASHPTHSISLPRPTQDIPARWLVSTIDHALGTLHAGGVHINCPFAEPLYGEMDDTGLSWQQRLGDWWQDDKPWLREAPRLESEKQRDWFFWRQKRGVVVAGRMSAEEGKKVALWAQTLGWPLIGDVLSQTGQPLPCADLWLGNAKATSELQQAQIVVQLGSSLTGKRLLQWQASCEPEEYWIVDDIEGRLDPAHHRGRRLIANIADWLELHPAEKRQPWCVEIPRLAEQAMQAVIARRDAFGEAQLAHRICDYLPEQGQLFVGNSLVVRLIDALSQLPAGYPVYSNRGASGIDGLLSTAAGVQRASGKPTLAIVGDLSALYDLNALALLRQVSAPLVLIVVNNNGGQIFSLLPTPQSERERFYLMPQNVHFEHAAAMFELKYHRPQNWQELETAFADAWRTPTTTVIEMVVNDTDGAQTLQQLLAQVSHL", "notes": "MenD, 2-succinyl-5-enolpyruvyl-6-hydroxy-3-cyclohexadiene-1-carboxylate synthase, E. coli; subunit 63 kDa; 'Untagged' means without RIAD or RIDD; also called untagged MenD; non-tagged enzyme"}}, "biological_target": "the molecule itself", "experiment": "not stated; oligomeric state of the untagged enzymes; the sentence points to Supplementary Figs. 1 and 2"}
{"protein": "B1", "values": [{"measurement": "stoichiometry N", "result": 4}]}
